Source: the DeepSol protein solubility set

assay: soluble on expression in E. coli; label from the status in PepcDB or PDB records

| Sequence | soluble on expression in E. coli |
| --- | --- |
| MAAKNAFYAQSGGVTAVINASAAGVIEAARKQSGKIGRIYAGRNGIIGALTEDLIDTGQESDAAISALRYTPSGAFGSCRYKLKSLEQNRREYERLIEVFKAHDIGYFFYNGGGDSADTCLKVSQLSGTLGYPIQAIHVPKTVDNDLPITDCCPGFGSVAKYIAVSTLEASFDVASMSATSTKVFVLEVMGRHAGWIAAAGGLASSPEREIPVVILFPEISFDKQKFLAKVDSCVKKFGYCSVVVSEGVKGDDGKFLSDQGVRDAFGHAQLGGVAPVVASMVKEGLGLKYHWGVADYLQRAARHIASKTDVEQAYAMGQAAVEFAVQGHNSVMPTIERISARPYQWKVGMAQLSQVANVEKMMPENFITEDGFGITDLCREYLAPLIEGEDYPPYKDGLPDYVRLKNVAVPKKLSGFTLLEHHHHHH | not soluble |
| MSLTELSAFPITRKWPAKHPERLQLYSLPTPNGVKVSIMLEEIGLAYEAHKVSFDNDDQLSPEFISLSANNKIPAILDPNGPGGQPLALFESGAILQYLAEKSGQLLSQDPAQRYQTLQWLMFQMGGIGPMFGQVGFFHFFAGKEYEDKRPRDRYVNESKRLLGVLDRHLKGRQWMAEEYSIADIAIFPWVRNLVERYNARDLVGFDQFKEVQRVLANFLERPAVQRGLKIPGEGHHHHHH | soluble |
| MRGNKGGERSRTFTVQARIVGRWQHPCSPRPEGRVHPQLPPHAAATRLACVRLYKHCGICGTPTHAVSHRNDTHDGDSAPTRCPRAEMPLSKKSSSLRQAIPCSVLFAADPLQVPSNACVGNRLSTVRRQHQFSASRHTKHAPSVAEDGNGIPRPPPVSVGAGVVDNANEPFAEYARLSTSLASRAHVEPFSSAPMSSFASCPYVAASSHGSTTMSKALRRLPTTVTALPGMAPPPPTISAAVPRNGHRTAGRTSAPLRVHLVHRTRSPPGLAHSPPAYSSTVTTSMPHEIPPTSALVLPYCTDAQLRNLFATLFVRTGDATWSVHQHILPFLTVRQHCNLSAAPSQVTAFFGLTSHSDEDVHEKGATGAAGHQGEQAFFGGPWATKEMNRVASQLCYSFVYVGILGCGEEMCWDTLPMPLGGIPALARRSPVRNAYNTGSTSASQSPVTRSSSSSAHPATPEKQCLCPTPHRSLRNSPCVSSSALGVVALMEGLKQHQPSRMVEDGGADDDEGGPKSTVLYHTDQLESSTLDVVTTSTLTSVEFRGVVEAPPLVQEVAFVRGATRSYKLSWETARGSLHT | soluble |
| MSLRKLGPVTIDPRRHDAVLFDTTLDATQELVRQLQEVGVGTGVFGSGLDVPIVAAGRLAVRPGRCVVVSAHSAGVTAARESGFALIIGVDRTGCRDALRRDGADTVVTDLSEVSVRTGDRRMSQLPDALQALGLADGLVARQPAVFFDFDGTLSDIVEDPDAAWLAPGALEALQKLAARCPIAVLSGRDLADVTQRVGLPGIWYAGSHGFELTAPDGTHHQNDAAAAAIPVLKQAAAELRQQLGPFPGVVVEHKRFGVAVHYRNAARDRVGEVAAAVRTAEQRHALRVTTGREVIELRPDVDWDKGKTLLWVLDHLPHSGSAPLVPIYLGDDITDEDAFDVVGPHGVPIVVRHTDDGDRATAALFALDSPARVAEFTDRLARQLREAPEGHHHHHH | soluble |
| MLVLRLFNTQKARLSQLPKASNEIVKDFISKLANAAGSRDKLSDCFTHDFQFFGCGYTVNKAPFVEKHLATPNPEPLIPKCSSFNGNDSKISFTASHQDGPRENIVDLVISREEKDSPWRLQSGKITNCP | not soluble |
| MGSDKIHHHHHHMMTEMQQRAQLHRQIWKIADEVRGAVDGWDFKQYVLGTLFYRFISENFTDYMQAGDSSIDYAAMPDSIITPEIKDDAVKVKGYFIYPGQLFCNIAAEAHQNEELNTKLKEIFTAIESSASGYPSEQGIKGLFDDFDTTSSRLGSTVADKNKRLAAVLKGVAELDFGNFEDHRIDLFGDAYEYLISNYAANAGKSGGEFFTPQSVSKLIARLAVHGQEKVNKIYDPACGSGSLLLQAKKQFDEHIIEEGFFGQEINHTTYNLARMNMFLHNVNYNKFHIELGDTLTNPKLKDSKPFDAVVSNPPYSIDWIGSDDPTLINDDRFAPAGVLAPKSKADFAFILHALNYLSGRGRAAIVSFPGIFYRGGAEQKIRQYLVEGNYVETVIALAPNLFYGTCIAVNILVLSKHKDNTDIQFIDASGFFKKETNNNVLTEEHIAEIVKLFADKADVPHIAQNAAQQTVKDNGYNLAVSSYVEAEDTREVIDIRQLNAEISETVAKIERLRREIDEVIAEIET | not soluble |
| MPNYDATHATSTETIHYVNEDGDQVFEDGGGKLDFTRTVTIDDVTNEVVEYGEWTPVTDDEFAAVTSPDKDGYTPDTSEVAAQKPDMTDGPDGTVKDVEVTVTYTANPAVATITYVDDDENGKTVKTLEHHHHHH | soluble |
| MGSDKIHHHHHHMEKKFNLENYLSYGVQNIVKGIIKSTLSNPKESLFMAKYSIASKNAIKLRAEADKIGEHVPPFLIASITSKCNLHCKGCYARHVNSCTDEKTVNQLTDEDWRRVFYEAKDIGVGFILLLGGEPLMRPNVIKIAGEIEDILFPIFTNGTMIDEKYIKLFQKYRNLIPIFSIEGNESNTDKRRGTGIYSEIIKKMNEAYENKIIYGASITVTKENIEEVTSEKFLDKLYSRGCKSVIYVEYVPVSEKEKKIALEGKEREFLKDKLVELRYKYEDILFISFPGDEKSSGGCLAAGRGFFHINFNGGVEPCPFSPYSDTNLKDLSLKEAMNSPLFRKLRKDNVLMEEHSGGCVLFEKEDIVQSLLQK | not soluble |
| MGSDKIHHHHHHMSDVSPARALGIDFGTSNSTVGWHRPGVESLIALEDGKITLPSVVFFNIEERRPVYGRLALHEYLEGYEGRLMRSLKSLLGSKLIKHDTSVLGSALPFKDLLGMFIGELKKRAEAAAGREFDQVVLGRPVFFVDEDPAADQEAEDTLAEVARKIGFKDVSFQYEPIAAAFDYESSISREELVLIVDIGGGTSDFTLIRLSPERHLVAERQSDILATGGVHIGGTDFDKQLSLQGVMPLFGYGSRMKSGALMPTSYHLNLATWHTINALYSQKSQLALGSMRYDIEDSFGIDRLFKLIEQRAGHWLAMEVEASKIELTEHDSRHIDLRRVEPELTAELTRTLFEEAIEGLLERVRGSVTELLAKAGVSEGQVDTVFFTGGSSGIPALRNSVSAMLPNARHVEGNIFGSIGSGLAIEARKRYGAA | not soluble |
| GASKAFYSAGDKLFQPGDDAVASMQTYSVAQFLQPFTLNPAKASSDYLGKWVKVRGVIVDIRRKSGIAGSYYFIVTMRDEQNKTDKRLTFNFGSHNSADVEALSNGSVATIVGQVHQVQDSTIPTLQNPKVVK | soluble |
| GMNPFQNSFGGHIPQDVAGKQGENVIFIVYNLTDSPDTVDKVKDVCANFSAMIRSMRNRFPDMQFSCTMGFGADAWTRLFPDKGKPKELSTFSEIKGEKYTAVSTPGDLLFHIRAKQMGLCFEFASILDEKLKGAVVSVDETHGFRYMDGKAIIGFVDGTENPAVDENPYHFAVIGEEDADFAGGSYVFVQKYIHDMVAWNALPVEQQEKVIGRHKFNDVELSDEEKPGNAHNAVTNIGDDLKIVRANMPFANTSKGEYGTYFIGYASTFSTTRRMLENMFIGSPAGNTDRLLDFSTAITGTLFFVPSYDLLGELGE | soluble |
| MGSDKIHHHHHHAACEKDPDMDKLDNDYLVYTNYDKKADFKQFSTYYIPDSVLVIGDKKDPEYWKGEAAEAIINAYKENLNSKGFTYTDNKDAADLGIQVSYVQSTYYFTDYGQPEWWWNYPGYWDAPYWGNWGGWYYPYVVNYSITTNSFLTEIMNLKAPEGEKQKLPVLWSSFLSGPASYSGKVNQTLVVRAINQSFAQSPYLTNK | not soluble |
| MGSDKIHHHHHHMANYPGIDTELLRTFVAIADHGGFTRAGEVVNRTQSAVSMQMKRLEEDVVQRQLFQREGRTLNLTAEGQVLLGYARRILKLHSEVFNTLREPHMVGVVKIGSPDDYVMRFLPGILSQFAQAYPLVQVEVHCEPSDLLLQRQDLDLTIVTRKPGTEIGTLLRHERLVWMEAIGFAPHEQKPMPLAMFNTHCFCRDWACNALDSVEREYRIAYTSSSMAAITAVVSAGLAVTAQFQSLATPELRILGDAEHLPHLPTASIVLLRNPKTPSPITECMADYIIDGFKP | not soluble |
| MSLESVQNYEAKSAHAHQAFFLKFEELKEVSKEQPRLEAEYPANTTKNYDHSRVRLTQLEGEPHSDYINANLVPGYTRPQEFIASQGPLKKTLENFWRLVREQQVRIIIMPTISMENGRVLCEHYWLTDSTPDTHGHITIHLLAEEPEDEWTKREFQLQHLLRGCPCGVGMGRTGTFVALSRLLQQLEEEQMVDVFHAVYALRMHQPLMIQTLSQYVFLHSCLLNKILEGPFNISESWPISVTDLPQACAKRAASANAGFLKEYEAIKDEAGFSAPPPGYEQDSPVSYDRSQGQFSPVEESPPDDMPEAWLFPGGPSGRDHTVLTGPAGPKELWELVWQHRAHVLVSLCPPNVMEKGESRKEREVQRLQFPYLEPGHELPATTLLPFLAAVGQCCSRGNNKKPGTLLSHSKCCWTMVSCSKGATQLGTFLAMEQLLQQAGSECTVDIFNVALQQSQACGLMTPTLITQQCLLLSDCTAPPPTEGHHHHHH | not soluble |
| MGSSHHHHHHSSGLVPRGSHMASGMAPGGYVAPKAVWLPAVKAKGLEISGTFTHRQGHIYMEMNFTNKALQHMTDFAIQFNKNSFGVIPSTPLAIHTPLMPNQSIDVSLPLNTLGPVMKMEPLNNLQVAVKNNIDVFYFSCLIPLNVLFVEDGKMERQVFLATWKDIPNENELQFQIKECHLNADTVSSKLQNNNVYTIAKRNVEGQDMLYQSLKLTNGIWILAELRIQPGNPNYTLSLKCRAPEVSQYIYQVYDSILKN | soluble |
| MLSFCPSCNNMLLITSGDSGVYTLACRSCPYEFPIEGIEIYDRKKLPRKEVDDVLGGGWDNVDQTKTQCPNYDTCGGESAYFFQLQIRSADEPMTTFYKCVNCGHRWKEN | not soluble |
| MGSDKIHHHHHHMYKKSVDLSLESVLVEIDENKKLMPSRNATVQPVALMRLGLFLPSLKRKGKDTENISIDASSELQSLELARAEGYTDIRITGPRLSMETDFKVWVGIILAFSKYGLNSSTIELPFSEFATFCGFSSKDKDKGLRTRLADSLIRLRSTTIKLASEKDRNGVVSGLLSRGKWDEKDDIMELTADESLWELYQFDRQVLLQMFIIRQLANKGTAQALYTFIESLPERPIPLSFARIKRRLMLTSPNNQQNRVINKAIDELKAVGYLDGDVVKKDGEWHLIITRRTPRPDIKAMSEALKDGE | not soluble |
| GPGSMWAQQLSLQKQTTKISPADKDAQALITANVFIEGNRMRVLKSMEQYQAVADSAYWNYGYMGGSMVTTMAICLSLSGRLPLLQRYASWISLAGGYFGGKAALGIHNARNLSHVVNTIDSAIVETRKMDEQYNFKIPDYAREVEALQRRKFELLPTSAEAIEARKNDLNNMPLDEKVDALVEAYEKRRQAVGKE | not soluble |
| MGSDKIHHHHHHMHRDTVFDLIGIGFGPSNLALAVRLAEEAGVPDLAHCFIERQPEFGWHRGMLLDDCRMQISFLKDLVTMRDPKSRFTFINYLFERGRLADFVNLKSFYPTRVEFHDYLAWVAASFDDRVNYGQTVTGIEAVKATARTNEVEALRVFSRDSEGREWQRVTRALSVGIGGGAQVPEAFAALGTHNIVHSSQYLTSIDRVVGPASSARKRVAVIGAGQSAAEVFVDLTRRYPHVDASLIIRSGALKPADDSPFVNEIFSPAFTDVVYAQPRDGRRALIERFRDTNYAVVDRPLIEQIYEMLYLQNVCAEPRHRLLANTGIETAVRTVNGRIELTLRDRLNGHARAEQFDALVLATGYRRDTHLDLLEGLAPHLGEALAQGNVERDYRLATPASFKPRIYLQGCCEDSHGLSDTLLSVLALRSDEIAASLAHHAAQDRSAGRAGEAQANATAASRMAFAL | not soluble |
